Experimental data: patent publication US20090136510A1 (Eli Lilly, published 2009)

Columns and labels:
[1] = molecular target: T1, recombinant human RON protein (rh-RON protein, R&D Systems; recombinant human MSPR) (human, UniProt Q04912 25-571); test: ELISA, blocking of MSP/RON interaction; ligand MSP
T1 construct: Bought soluble recombinant protein; also called rhu-RON protein; rh-MSPR; not shown: His tag on the recombinant protein
T1 sequence (looked up): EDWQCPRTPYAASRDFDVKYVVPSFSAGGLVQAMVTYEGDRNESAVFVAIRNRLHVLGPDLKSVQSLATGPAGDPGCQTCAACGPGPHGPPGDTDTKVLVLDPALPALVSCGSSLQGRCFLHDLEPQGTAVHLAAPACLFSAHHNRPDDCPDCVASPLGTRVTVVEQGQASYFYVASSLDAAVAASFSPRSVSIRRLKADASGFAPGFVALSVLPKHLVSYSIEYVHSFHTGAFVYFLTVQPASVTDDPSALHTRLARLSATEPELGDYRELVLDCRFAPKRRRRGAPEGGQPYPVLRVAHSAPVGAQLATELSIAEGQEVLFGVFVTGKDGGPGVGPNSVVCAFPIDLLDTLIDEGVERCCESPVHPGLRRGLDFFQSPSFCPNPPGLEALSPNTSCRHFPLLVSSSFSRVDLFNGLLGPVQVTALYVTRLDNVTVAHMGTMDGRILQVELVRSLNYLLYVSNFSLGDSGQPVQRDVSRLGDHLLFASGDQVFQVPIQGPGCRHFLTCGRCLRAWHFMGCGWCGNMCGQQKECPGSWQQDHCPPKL

[2] = molecular target: T1, recombinant human RON protein (rh-RON …); test: blocking ELISA: serially diluted RON8 pre-incubated with His-tagged recombinant human RON (rh-MSPR), added to plate-immobilised recombinant human MSP (the blocked ligand); bound RON detected with anti-His-tag HRP, absorbance 450 nm
Procedure: ELISA to Detect RON8 Blocking of MSP Binding to RON: ELISA plates were coated with 100 ng/well carrier-free MSP (R&D Systems) overnight at 4° C. on a rocker. The plate was washed once with 0.2% PBS/T and blocked for 2 hours at 37° C. with 150 μL/well 3% milk. A 15 μg/mL dilution of RON8 was prepared and serially diluted across another ELISA plate. To the RON8, was added 100 ng/well recombinant human MSPR (R&D Systems). The RON8/rh-MSPR complex was allowed to form for 2 hours at room temperature on a rocker. Next, the MSP-coated ELISA plate was washed once with 0.2% PBS/T and 100 μL of the RON8/rh-MSPR complex were added per well. After a 1.5-hour incubation at room temperature, the plate was washed five times with 0.2% PBS/T and incubated for 1 hour at room temperature with a 1:2,000 dilution of anti-His-tag HRP antibody (Sigma), which recognizes a His tag on the recombinant human MSPR protein. The plate was washed five times with 0.2% PBS/T and 100-AL substrate was added per well until a yellow color developed. The reaction was stopped with 50 μL of 1N H₂SO4 and the absorbance at 450 nm determined with a standard plate reader. The results of which are illustrated by FIG. 6A depict the solid-phase blocking characteristic of RON8. The ELISA data determined the IC50 value of RON8 needed to block the interaction of recombinant human RON protein to immobilized recombinant human MSP.

Recombinant RON-Fc [3] = molecular target: T2, Recombinant RON-Fc (UniProt Q04912 25-957, limits assumed); test: method and RON form not stated at this place; clone-selection value of paragraph 178; method and RON form not stated
T2 construct: Immobilised on the BIAcore chip; also called RON proteins; not shown: Fc part
T2 sequence (looked up): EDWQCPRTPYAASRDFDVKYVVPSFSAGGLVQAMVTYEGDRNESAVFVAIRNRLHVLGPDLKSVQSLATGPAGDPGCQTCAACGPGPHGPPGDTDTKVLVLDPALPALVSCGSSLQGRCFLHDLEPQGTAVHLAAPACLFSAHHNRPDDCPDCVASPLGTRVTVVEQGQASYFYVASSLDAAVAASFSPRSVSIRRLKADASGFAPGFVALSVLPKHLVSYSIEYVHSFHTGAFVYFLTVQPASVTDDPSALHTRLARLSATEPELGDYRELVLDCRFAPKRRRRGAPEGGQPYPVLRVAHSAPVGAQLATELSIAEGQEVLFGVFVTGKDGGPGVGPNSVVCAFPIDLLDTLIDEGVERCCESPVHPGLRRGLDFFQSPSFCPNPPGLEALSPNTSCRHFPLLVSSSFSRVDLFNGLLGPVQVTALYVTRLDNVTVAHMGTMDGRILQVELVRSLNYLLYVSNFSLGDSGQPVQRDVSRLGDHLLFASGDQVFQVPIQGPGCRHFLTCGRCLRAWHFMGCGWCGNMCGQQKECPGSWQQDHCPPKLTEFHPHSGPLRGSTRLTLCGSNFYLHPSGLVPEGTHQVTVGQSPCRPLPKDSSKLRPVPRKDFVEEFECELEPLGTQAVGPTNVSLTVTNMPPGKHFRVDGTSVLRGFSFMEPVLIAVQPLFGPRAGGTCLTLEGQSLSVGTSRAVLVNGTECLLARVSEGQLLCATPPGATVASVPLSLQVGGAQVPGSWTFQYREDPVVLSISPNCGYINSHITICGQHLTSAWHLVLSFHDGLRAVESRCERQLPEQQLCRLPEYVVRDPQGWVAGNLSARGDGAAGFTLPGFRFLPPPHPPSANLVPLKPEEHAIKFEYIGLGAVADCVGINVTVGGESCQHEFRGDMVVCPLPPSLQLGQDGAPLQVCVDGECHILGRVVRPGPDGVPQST

Recombinant RON-Fc [4] = molecular target: T2, Recombinant RON-Fc; test: comparison of KD values; reference RON1
[5] = molecular target: T1, recombinant human RON protein (rh-RON …); test: ELISA, receptor immobilised on the plate (given as ED50)
Procedure: The ability of the anti-RON antibodies, RON6 and RON8, to bind to recombinant human RON receptor and to block the MSP/RON interaction were measured using ELISA. […] Using the same ELISA format, the two antibodies were tested for their ability to block MSP/RON interactions. The measured IC₅₀ values were 46 pM for RON6 and 62 pM for RON8.

Recombinant RON-Fc [6] = molecular target: T2, Recombinant RON-Fc; test: SPR (BIACORE 3000), RON-Fc immobilised, antibody injected; BIACORE 3000, RON-Fc immobilized
Procedure: BIAcore Analysis. The binding kinetics of the antibodies to the RON proteins was determined by using a BIACORE 3000 (BIAcore, Piscataway, N.J.). Recombinant RON-Fc was immobilized onto a sensor chip, and antibody was injected at various concentrations. Sensorgrams were obtained and evaluated using BIA Evaluation 2.0 software to determine rate constants. The affinity constant, KD, was calculated from the ratio of the rate constants Koff/Kₒₙ. The “Kₒₙ, M⁻¹.S⁻¹” and “Koff, S⁻¹” rates of the interaction were used to determine the affinity (Kd, M) of the antibody/receptor interaction. […] For RON8 they were: 3.2e-11, 6.1e6 and 2.0e-4

B1: RON8 antibody (human anti-RON monoclonal antibody) (antibody, human IgG1, kappa, V domains shown)
VH: EVQLVESGGGLVQPGGSLRLSCAASGFTFSSYLMTWVRQAPGKGLEWVANIKQDGSEKYYVDSVKGRFTISRDNAKNSLNLQMNSLRAEDTAVYYCTRDGYSSGRHYGMDVWGQGTTVIVSS
VL: EIVLTQSPATLSLSPGERATLSCRASQSVSRYLAWYQQKPGQAPRLLIYDASNRATGIPARFSGSGSGTDFTLTISSLEPEDFAVYYCQQRSNWPRTFGQGTKVEIKR
notes: Fully human IgG from HuMAb mice
B1 was tested. Which IC50 [1] did it give?
Its IC50 is 0.062 nM.

What about the IC50 [2] of the same binder?
The IC50 was 0.473 nM.

And the “IC50 (read off the curve)” value [2]?
Its value is ~0.5 nM.

What about the Kd (Recombinant RON-Fc [3]) of the same binder?
Its Kd is 0.023 nM.

What about the “fold greater affinity than RON1” value (Recombinant RON-Fc [4]) of the same binder?
The value was 100 fold.

What about the EC50 [5] of the same binder?
Its EC50 is 0.0021 nM.

What about the Kd (Recombinant RON-Fc [6]) of the same binder?
The Kd was 0.032 nM.

And the koff (Recombinant RON-Fc [6])?
Its koff is 0.0002 s⁻¹.

What about the kon (Recombinant RON-Fc [6]) of the same binder?
The kon was 6.1e+06 M⁻¹ s⁻¹.

B2: RON6 antibody (human anti-RON monoclonal antibody) (antibody, human IgG1, kappa, V domains shown)
VH: QVQLVQSGPEVKKSGSSVKVSCKASGGTFSSDAITWVRQAPGQGLEWMGGIIPILGMANYAQKFQGRVTITADKSTNTAYMELSSLRSEDTAVYFCARVADYYGLGTYYWYFDLWGRGTLVTVSS
VL: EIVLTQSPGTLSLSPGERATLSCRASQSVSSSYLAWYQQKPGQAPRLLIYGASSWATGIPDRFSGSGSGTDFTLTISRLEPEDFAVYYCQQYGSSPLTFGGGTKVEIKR
notes: as for B1
For B2, which IC50 [1] is on record?
The IC50 was 0.046 nM.

What about the Kd (Recombinant RON-Fc [3]) of the same binder?
The Kd was 0.045 nM.

What about the “fold greater affinity than RON1” value (Recombinant RON-Fc [4]) of the same binder?
Its value is 100 fold.

What about the EC50 [5] of the same binder?
Its EC50 is 0.0042 nM.

What about the Kd (Recombinant RON-Fc [6]) of the same binder?
Its Kd is 0.041 nM.

And the koff (Recombinant RON-Fc [6])?
Its koff is 8.6e-05 s⁻¹.

What about the kon (Recombinant RON-Fc [6]) of the same binder?
Its kon is 2.2e+06 M⁻¹ s⁻¹.
